Consider two proteins from paper PMC5384747, “Characterization and mutational analysis of a nicotinamide mononucleotide deamidase from Agrobacterium tumefaciens showing high thermal stability and catalytic efficiency” (PLoS ONE, 2017).

As a reminder, the Km is the substrate concentration at which the rate is half of its maximum. Broadly, the kcat is the number of substrate molecules converted per active site and unit of time at saturation. As usually defined, the kcat/Km is the turnover number divided by the Michaelis constant. The stoichiometry N is the number of molecules, sites or subunits per partner or assembly.

Substrate in the data set “purified protein”: NC(=O)c1ccc[n+]([C@@H]2O[C@H](COP(=O)(O)O)[C@@H](O)[C@H]2O)c1
Description: purified protein. Type of data set: biochemical, Agrobacterium fabrum. As to conditions: 50 mM sodium phosphate pH 7.5, 37 °C.

Data set [1] deals with the molecule itself. As to the kind of experiment: SEC; gel filtration on Superdex 200 10/300 GL of the purified enzyme; about 41 kDa against about 19 kDa by SDS-PAGE. For orientation: SEC sorts molecules by how far they enter the pores of the column.

B1: AtCinA (NMN deamidase) (Agrobacterium fabrum str. C58) (protein)
chain: MSLFPGDIEELARRIITDFTPLGLMVSTAESCTGGLIAGALTEIAGSSAVVDRGFVTYTNDAKRDMLGVGTETLTTFGAVSRQTALQMAHGALYRSRANFAVAVTGIAGPGGGSAEKPVGLVHLATKARNGNVLHHEMRYGDIGRTEIRLATVRTALEMLIALNQAGSV
notes: full length (169 residues, synthetic 510 bp gene), C-terminal His tag (pET24b), E. coli Rosetta 2(DE3); about 19 kDa subunit, 41 kDa homodimer
For B1, in “purified protein”, the Km worked out at 24 ± 2 µM, the kcat worked out at 8.7 ± 0.2 s⁻¹ and the kcat/Km is 362000 M⁻¹ s⁻¹.

B2: Agrobacterium tumefaciens nicotinamide mononucleotide (NMN) deamidase (enzyme)
chain: MSLFPGDIEELARRIITDFTPLGLMVSTAESCTGGLIAGALTEIAGSSAVVDRGFVTYTNDAKRDMLGVGTETLTTFGAVSRQTALQMAHGALYRSRANFAVAVTGIAGPGGGSAEKPVGLVHLATKARNGNVLHHEMRYGDIGRTEIRLATVRTALEMLIALNQAGSV
notes: NMN deamidase CinA of Agrobacterium tumefaciens, UniProt A9CJ26, 169 amino acids; 510 bp synthetic gene cloned between NheI and XhoI of pET24b; Cloning at the NheI and XhoI sites may add a few vector residues; also called AtCinA; CinA
For the protein B2, the “stoichiometry N” value in data set [1] stood at 2.
